Laboratory results from publication PMC10417383, “DNA-Binding Activity of CAMTA3 Is Essential for Its Function: Identification of Critical Amino Acids for Its Transcriptional Activity”.

Target: T1, CAMTA3 CG-1 WT (Arabidopsis thaliana, UniProt Q8GSA7 1-153)
T1 sequence: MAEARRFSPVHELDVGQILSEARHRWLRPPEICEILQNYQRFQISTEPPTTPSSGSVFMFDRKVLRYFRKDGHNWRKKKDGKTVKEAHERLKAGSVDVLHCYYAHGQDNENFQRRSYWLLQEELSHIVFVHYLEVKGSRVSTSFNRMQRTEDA
Assay: EMSA; complex detected from 25 ng protein, good binding at 50 ng or more; 20 fmol probe; reduced by unlabeled PDF1.4 competitor; 1X LightShift EMSA binding buffer, 50 ng/ul poly(dI-dC), 20 fmol probe in 20 ul, +/- 4 pmol unlabeled DNA, room temperature 30 min; 5% native PAGE, 0.5X TBE; pH and salt not given
Settings: protein: recombinant; tags: His (pET28a); label: 3'-biotin on strand 1; blunt

B1: PDF1.4 promoter probe (dsDNA)
DNA 1: CGTGAAAGTCACGCGCCAAGAACAAA
DNA 2: TTTGTTCTTGGCGCGTGACTTTCACG
binding result: binds
